Ends that are not written are not given here.
Target: human CD4 on cells (MT-2, MT-4 cells; mouse SR.hCD4 cells transfected with human CD4) (human, UniProt P01730 26-458)
Test: cell-based or functional assay

With SGPGTTKRFPETVLARCVKYTEIH (also: biotin conjugated in ELISA, site not given here) [synthetic soluble peptide corresponding to amino acids 51-74 of CD38 (CD3851-74)] the “EC50, inhibition of HIV-1IIIB replication in MT-4 cells (p24 ELISA, day 3)” value was 2.2 µM.

B1: octameric branched peptide presenting the GPGTTK sequence (GPGTTK MBP) (peptide)
peptide 1: GPGTTK
peptide 2: GPGTTK
peptide 3: GPGTTK
peptide 4: GPGTTK
peptide 5: GPGTTK
peptide 6: GPGTTK
peptide 7: GPGTTK
peptide 8: GPGTTK
modifications: Each of the eight arms is bound through its C-terminus (Lys 6) to an 8-branching lysine core (Map resin), which cannot be written as a linear chain. The peptide was conjugated with biotin for the rshCD4 ELISA; the site is not stated.
In the case of B1, the “EC50, inhibition of HIV-1IIIB replication in MT-4 cells (p24 ELISA, day 3)” value is reported as 4.3 µM.

— patent publication US20040116653A1 (JARROW FORMULAS, published 2004)
